Consider 4 molecules from patent US20220411519A1 (SHANGHAI NOVAMAB BIOPHARMACEUTICALS, published 2022).

Usually EC50 stands for the concentration giving half of the maximal effect. The term IC50 denotes the concentration that inhibits the measured activity by half.

In test [1] the target is T1, human IL-4R on cells (293F/IL-4R cells; HEK293F cells with high IL-4Rα expression) (human, UniProt P24394 26-825).
T1 construct: whole, on cells; also called IL-4Ra
Put plainly: flow cytometry on HEK293F cells with high IL-4Rα expression, anti-human Fc-FITC. How it is done:
(1) HEK293F cells with high IL-4Rα expression were collected, centrifuged at 1000 rpm for 5 min, and the supernatant was discarded. The cells were re-suspended with 5 mL PBS and centrifuged at 1000 rpm for 5 min, and the supernatant was discarded. Then the cells were re-suspended with 2 mL PBS, and counted. The cells were divided into 96-well plates with 3×10⁵ cells per well; (2) Humanized antibody huNb103 (amino acid sequence refers to SEQ ID NO:16) and Dupilumab were diluted by 2-fold gradient dilution (40 ug/mL, 20 ug/mL, 10 ug/mL, 5 ug/mL, 2.5 ug/mL, 1.25 ug/mL, 0.625 ug/mL, 0.313 ug/mL, 0.156 ug/mL, 0.078 ug/mL). The cells in the 96-well plate were resuspended with the diluted antibody and incubated at 4° C. for 20 min. (3) Centrifugation was performed at 3000 rpm at 4° C. for 4 min, and 200 ul PBS was added to each well. After resuspension, centrifugation was performed at 3000 rpm at 4° C. for 4 min. (4) Diluted anti-human Fc-FITC antibody (diluted at 1:200) was added and incubated at 4° C. for 20 min. (5) Centrifugation was performed at 3000 rpm at 4° C. for 4 min, and the supernatant was discarded, 200 uL PBS was added into each well to wash cells for two times, then 200 uL PBS was added to re-suspend the cells. The cells were transferred to flow tube to detect FITC signal of each sample via flow cytometry.
A general note: In flow cytometry, cells or beads pass a laser one at a time.

The target in test [2] is T1, human IL-4R on cells (293F/IL-4R cells; …). Put plainly: flow cytometry blocking of IL-4/IL-4R on HEK293F cells with high IL-4Rα expression, SA-PE. As for the experimental part:
(1) HEK293F cells with high IL-4Rα expression were collected, centrifuged at 1000 rpm for 5 min, and the supernatant was discarded. The cells were re-suspended with 5 mL PBS and centrifuged at 1000 rpm for 5 min, and the supernatant was discarded. Then the cells were re-suspended with 2 mL PBS, and counted. The cells were divided into 96-well plates with 3×10⁵ cells per well. (2) Humanized antibody huNb103 (amino acid sequence refers to SEQ ID NO:16) and Dupilumab were diluted by 2-fold gradient dilution (40 ug/mL, 20 ug/mL, 10 ug/mL, 5 ug/mL, 2.5 ug/mL, 1.25 ug/mL, 0.625 ug/mL, 0.313 ug/mL, 0.156 ug/mL, 0.078 ug/mL). The cells in the 96-well plate were resuspended with the diluted antibody and incubated at 4° C. for 20 min. (3) Centrifugation was performed at 3000 rpm at 4° C. for 4 min, and 200 ul PBS was added to each well. After resuspension, centrifugation was performed at 3000 rpm at 4° C. for 4 min. (4) Diluted SA-PE staining solution (diluted at 0.3:100) was added and incubated at 4° C. for 20 min. (5) Centrifugation was performed at 3000 rpm at 4° C. for 4 min, and the supernatant was discarded, 200 uL PBS was added into each well to wash cells for two times, then 200 uL PBS was added again to re-suspend the cells. The cells were transferred to flow tube to detect PE signal of each sample via flow cytometry.

Test [3] has the same target. Briefly: flow cytometry competition: antibody titrated against 5 ug/mL IL-4-biotin on 293F/IL-4R cells, SA-PE. How it is done:
(1) A certain number of 293F/IL-4R cells that were transitioned for 48 h were centrifuged at 1000 rpm for 5 min, the supernatant was discarded, the cells were re-suspended and washed with PBS for once, and counted. The cells were divided into 96-well plates at 100 ul/well, and then centrifuged at 3000 rpm at 4° C. for 4 min. (2) The supernatant was aspirated, and the single-domain antibody with different sequences in gradient diluted in example 1 was added (two-fold gradient dilution starting from 40 ug/mL). 50 uL was added to each well, and then 50 uL of 5 ug/mL IL-4-biotin was added to mix, and incubated at 4° C. for 20 min. (3) Centrifugation was performed at 3000 rpm at 4° C. for 4 min, and the supernatant was discarded. 200 uL PBS was added to each well to wash the cells, and the supernatant was discarded by centrifugation again. Diluted SA-PE staining solution was added and incubated at 4° C. for 20 min. (4) Centrifugation was performed at 3000 rpm at 4° C. for 4 min, and the supernatant was discarded. 200 uL PBS was added to each well to wash the cells, and the supernatant was discarded by centrifugation again. 200 uL PBS was added to re-suspend the cells, and the PE signal of the samples was detected by flow cytometry.

In the next test the target is rhesus monkeys IL-4R (rhesus monkey, UniProt F6RUR0 26-232). Put plainly: ELISA, coated IL-4R, same method as for FIG. 6. As for the experimental part: (§1) ELISA was used to verify whether the candidate antibody could cross-react with IL-4R proteins of different species, and the method was as follows: (1) 1 ug/mL human IL-4R, mouse IL-4R and cynomolgus monkey IL-4R were added into the plate and coated overnight at 4° C. with 100 uL/well. (2) After washing with PBST for 5 times, 300 uL 1% BSA was added to each well and sealed for 2 hours at room temperature. (3) After washing with PBST for 5 times, 100 uL of 2 ug/mL antibody to be tested was added and incubated at 37° C. for 1 hour. (4) After washing with PBST for 5 times, 100 uL diluted anti-HA antibody (diluted at 1:2000) was added and incubated at 37° C. for 1 hour. (4) After washing with PBST for 5 times, 100 uL diluted anti-mouse IgG antibody (diluted at 1:2000) was added and incubated at 37° C. for 30 minutes. (5) After washing with PBST for 5 times, 100 uL PA chromogenic solution was added and developing at 37° C. for 10 minutes, and the absorption value was measured at 405 nm wavelength with a microplate reader. The results are shown in FIG. 6, the candidate antibody Nb103 can recognize the human IL-4R, but not mouse and cynomolgus monkey IL-4R.
ELISA was used again to verify whether the candidate antibody could cross-react with IL-4R protein of different monkey types. The detection method was the same as above. […]

The target in test [4] is T1, human IL-4R on cells (293F/IL-4R cells; …). Put plainly: cell-based or functional assay.
The target in another test is cynomolgus monkey IL-4R (cynomolgus monkey, UniProt A0A2K5V580 33-239). Briefly: ELISA, IL-4R coated at 1 ug/mL, anti-HA detection. As for the experimental part: as §1
In the next test the target is T2, mouse IL-4R (mouse, UniProt P16382 26-233, limits assumed).
T2 sequence (looked up): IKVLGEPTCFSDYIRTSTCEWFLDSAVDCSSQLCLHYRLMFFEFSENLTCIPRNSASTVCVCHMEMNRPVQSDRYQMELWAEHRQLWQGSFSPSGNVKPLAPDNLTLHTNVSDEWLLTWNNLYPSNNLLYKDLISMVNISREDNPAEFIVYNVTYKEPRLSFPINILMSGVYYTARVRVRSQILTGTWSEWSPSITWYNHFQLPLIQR
Briefly: ELISA, IL-4R coated at 1 ug/mL, anti-HA detection. As for the experimental part: as §1
(In general: An ELISA detects its analyte on a solid surface through an enzyme-linked reagent.)

B1: Dupilumab (antibody, V domains shown)
VH: EVQLVESGGGLEQPGGSLRLSCAGSGFTFRDYAMTWVRQAPGKGLEWVSSISGSGGNTYYADSVKGRFTISRDNSKNTLYLQMNSLRAEDTAVYYCAKDRLSITIRPRYYGLDVWGQGTTVTVSS
VL: DIVMTQSPLSLPVTPGEPASISCRSSQSLLYSIGYNYLDWYLQKSGQSPQLLIYLGSNRASGVPDRFSGSGSGTDFTLKISRVEAEDVGFYYCMQALQTPYTFGQGTKLEIKR
In test [1], B1 displayed an EC50 of 0.36 µg/mL. Besides, the results for the IC50 in test [2] and in test [3] were 1.13 µg/mL and 0.511 µg/mL, respectively.

B2: IL-4R single-domain antibody Nb103 (VHH)
VHH: QVQLQESGGGSVQAGGSLRVSCAASGSTSYRYCMAWFRQAPGKEREAVASIRPRSGRAYYADSVKGRFTISLDNAKNTLYLQMNSLKPEDTAMYYCAASDNDGNCQDYWGKGTQVTVSS
notes: also called candidate single-domain antibody Nb103; IL-4Ra Nb103 antibody; not shown: tag(s) from the pMECS phage vector
Regarding B2, the binding result with rhesus monkeys IL-4R is recorded as “no binding”; in the test with cynomolgus monkey IL-4R, “no binding (tested: 2 ug/mL antibody)”; with mouse IL-4R it was “no binding (tested: 2 ug/mL antibody)”. In test [3], this molecule returned an IC50 of 0.274 µg/mL. Moreover, in test [4], the “inhibition of TF-1 cell proliferation induced by IL-4 (CCK8, OD450)” value (“inhibition … by IL-4 (CCK8, OD450)” for short) turned out to be 0.149 µg/mL. Also, the “inhibition of TF-1 cell proliferation induced by IL-13 (CCK8, OD450)” value (“inhibition … by IL-13 (CCK8, OD450)” for short) in test [4] turned out to be 0.066 µg/mL.

B3: humanized tetravalent antibody tet-huNb103 (Fc fusion)
chain: EVQLVESGGGLVQPGGSLRLSCAASGSTSYRYCMAWFRQAPGKGLEAVASIRPRSGRAYYADSVKGRFTISRDNSKNTLYLQMNSLRAEDTAVYYCAASDNDGNCQDYWGKGTLVTVSSGGGGSGGGSEVQLVESGGGLVQPGGSLRLSCAASGSTSYRYCMAWFRQAPGKGLEAVASIRPRSGRAYYADSVKGRFTISRDNSKNTLYLQMNSLRAEDTAVYYCAASDNDGNCQDYWGKGTLVTVSSESKYGPPCPPCPAPEFLGGPSVFLFPPKPKDTLMISRTPEVTCVVVDVSQEDPEVQFNWYVDGVEVHNAKTKPREEQFNSTYRVVSVLTVLHQDWLNGKEYKCKVSNKGLPSSIEKTISKAKGQPREPQVYTLPPSEEMTKNQVSLTCLVKGFYPSDIAVEWESNGQPENNYKTTPPVLDSDGSFFLYSRLTVDKSRWQEGNVFSCSVMHEALHNHYTQKSLSLSLG
For B3, in test [4], the “inhibition … by IL-4 (CCK8, OD450)” value came out at 0.02 µg/mL and the “inhibition … by IL-13 (CCK8, OD450)” value came to 0.026 µg/mL.

B4: humanized antibody huNb103 (humanized single-domain antibody fused with Fc) (Fc fusion)
chain: EVQLVESGGGLVQPGGSLRLSCAASGSTSYRYCMAWFRQAPGKGLEAVASIRPRSGRAYYADSVKGRFTISRDNSKNTLYLQMNSLRAEDTAVYYCAASDNDGNCQDYWGKGTLVTVSSESKYGPPCPPCPAPEFLGGPSVFLFPPKPKDTLMISRTPEVTCVVVDVSQEDPEVQFNWYVDGVEVHNAKTKPREEQFNSTYRVVSVLTVLHQDWLNGKEYKCKVSNKGLPSSIEKTISKAKGQPREPQVYTLPPSEEMTKNQVSLTCLVKGFYPSDIAVEWESNGQPENNYKTTPPVLDSDGSFFLYSRLTVDKSRWQEGNVFSCSVMHEALHNHYTQKSLSLSLG
notes: called bivalent, so two chains; expressed in HEK293F; also called humanized bivalent antibody; human bivalent antibody
In test [1], B4 came in with an EC50 of 0.286 µg/mL. Moreover, the IC50 in test [2] stood at 0.474 µg/mL. Further, in test [4], the “inhibition … by IL-4 (CCK8, OD450)” value turned out to be 0.032 µg/mL and the “inhibition … by IL-13 (CCK8, OD450)” value worked out at 0.059 µg/mL.
